One assay has as its target T1, Ssk1-R2-K525A (S. cerevisiae, UniProt Q07084 495-712, K525A).
T1 sequence: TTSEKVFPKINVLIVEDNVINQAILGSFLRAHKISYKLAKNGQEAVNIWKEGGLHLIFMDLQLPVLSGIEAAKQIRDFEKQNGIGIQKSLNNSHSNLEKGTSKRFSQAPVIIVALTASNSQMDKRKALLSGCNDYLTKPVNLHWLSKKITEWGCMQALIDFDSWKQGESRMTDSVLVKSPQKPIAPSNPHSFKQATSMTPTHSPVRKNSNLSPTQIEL
In words: other fluorescence titration.

The target in another assay is T2, Ssk1-R2-R524A (S. cerevisiae, UniProt Q07084 495-712, R524A).
T2 sequence: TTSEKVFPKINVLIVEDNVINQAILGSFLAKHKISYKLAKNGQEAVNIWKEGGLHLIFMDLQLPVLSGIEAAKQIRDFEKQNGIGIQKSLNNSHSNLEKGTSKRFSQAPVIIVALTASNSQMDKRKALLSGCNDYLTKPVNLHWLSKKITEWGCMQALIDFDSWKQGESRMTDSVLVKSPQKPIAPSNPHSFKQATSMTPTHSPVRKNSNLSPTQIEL
The assay is described as follows: other fluorescence titration.

Assay [1] addresses T3, Receiver domain of Ssk1 (Ssk1-R2), wild type (S. cerevisiae, UniProt Q07084 495-712).
T3 sequence: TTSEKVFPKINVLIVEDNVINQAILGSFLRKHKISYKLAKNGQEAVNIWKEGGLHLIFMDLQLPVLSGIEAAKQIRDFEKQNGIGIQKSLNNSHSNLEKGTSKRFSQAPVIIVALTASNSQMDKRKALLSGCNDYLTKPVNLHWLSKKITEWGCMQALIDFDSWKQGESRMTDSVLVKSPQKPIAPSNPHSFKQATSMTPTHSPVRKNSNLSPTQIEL
In words: other fluorescence titration.

For the next assay, the target named is T4, Ssk1-R2-W638A (S. cerevisiae, UniProt Q07084 495-712, W638A).
T4 sequence: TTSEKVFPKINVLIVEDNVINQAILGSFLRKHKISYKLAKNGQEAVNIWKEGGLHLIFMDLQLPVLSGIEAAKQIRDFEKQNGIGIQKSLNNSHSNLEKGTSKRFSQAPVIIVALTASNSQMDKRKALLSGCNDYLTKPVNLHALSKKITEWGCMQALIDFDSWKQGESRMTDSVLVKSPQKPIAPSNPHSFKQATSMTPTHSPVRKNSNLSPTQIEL
In words: other fluorescence titration.

The target in assay [2] is T5, Selenomethionine derivative of Ssk1-R2-W638A (S. cerevisiae, UniProt Q07084 495-712, W638A, selenomethionine incorporated).
T5 sequence: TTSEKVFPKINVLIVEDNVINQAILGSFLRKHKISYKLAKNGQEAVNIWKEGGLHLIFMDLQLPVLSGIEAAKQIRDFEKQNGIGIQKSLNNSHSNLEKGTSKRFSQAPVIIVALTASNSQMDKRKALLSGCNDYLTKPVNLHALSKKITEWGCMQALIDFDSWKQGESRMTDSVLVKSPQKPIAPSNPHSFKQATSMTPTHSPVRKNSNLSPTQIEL
In words: crystal structure.

B1: Fluoresceinated Ypd1-T12C variant (Ypd1-T12C~F) (natural protein, S. cerevisiae, UniProt Q07688 1-167, looked up)
chain: MSTIPSEIINWCILNEIISMDDDDSDFSKGLIIQFIDQAQTTFAQMQRQLDGEKNLTELDNLGHFLKGSSAALGLQRIAWVCERIQNLGRKMEHFFPNKTELVNTLSDKSIINGINIDEDDEEIKIQVDDKDENSIYLILIAKALNQSRLEFKLARIELSKYYNTNL
modifications: 5-iodoacetamidofluorescein (5-IAF) on the cysteine at 12 (T12C)
As for B1, the Kd (usually the concentration at which binding is half-saturated) in the assay with Ssk1-R2-K525A amounted to 640 nM; with Ssk1-R2-R524A, 918 nM; in assay [1], 23.7 nM; with Ssk1-R2-W638A, 219 nM.

B2: Ypd1 (histidine phosphotransfer protein) from S. cerevisiae (natural protein, UniProt Q07688 1-167, looked up)
chain: MSTIPSEIINWTILNEIISMDDDDSDFSKGLIIQFIDQAQTTFAQMQRQLDGEKNLTELDNLGHFLKGSSAALGLQRIAWVCERIQNLGRKMEHFFPNKTELVNTLSDKSIINGINIDEDDEEIKIQVDDKDENSIYLILIAKALNQSRLEFKLARIELSKYYNTNL
For B2, in assay [2], the binding result is reported as “binds”.
